Here are results for 23 molecules from US20230340058A1.

Positions count from the first letter of the chain named.

To fix the notation:
B1: SEQ ID NO: 78 (Fc fusion)
chain: DKTHTCPPCPAPEAAGGPSVFLFPPKPKDTLMISRTPEVTCVVVDVSHEDPEVKFNWYVDGVEVHNAKTKPREEQYNSTYRVVSVLTVLHQDWLNGKEYKCKVSNKALAAPIEKTISKAKGQPREPQVYTLPPSRDELTKNQVSLTCLVKGFYPSDIAVEWESNGQPENNYKTTPPVLDSDGSFFLYSKLTVDKSRWQQGNVFSCSVLHEALHSHYTQKSLSLSPGGGSDSWQEEVIKLCGRELVRAQIAICGKSTGGGEEGGGEEGGGRQLYSALANKCCHVGCTKRSLAQFC
B2: SEQ ID NO: 205 (Fc fusion)
chain: DKTHTCPPCPAPEAAGGPSVFLFPPKPKDTLMISRTPEVTCVVVDVSHEDPEVKFNWYVDGVEVHNAKTKPREEQYNSTYRVVSVLTVLHQDWLNGKEYKCKVSNKALAAPIEKTISKAKGQPREPQVYTLPPSRDELTKNQVSLTCLVKGFYPSDIAVEWESNGQPENNYKTTPPVLDSDGSFFLYSKLTVDKSRWQQGNVFSCSVLHEALHSHYTQKSLSLSPGKGGSDSWKEEVIKLCGRELVRAQIAICGKSTGGGEGGGEGGGEGGGQLYSALANKCCHVGCTKRSLARFC
B3: SEQ ID NO: 60 (Fc fusion)
chain: B2 chain with K234Q
B4: SEQ ID NO: 207 (Fc fusion)
chain: B2 chain with K234M
B5: SEQ ID NO: 212 (Fc fusion)
chain: DKTHTCPPCPAPEAAGGPSVFLFPPKPKDTLMISRTPEVTCVVVDVSHEDPEVKFNWYVDGVEVHNAKTKPREEQYNSTYRVVSVLTVLHQDWLNGKEYKCKVSNKALAAPIEKTISKAKGQPREPQVYTLPPSRDELTKNQVSLTCLVKGFYPSDIAVEWESNGQPENNYKTTPPVLDSDGSFFLYSKLTVDKSRWQQGNVFSCSVLHEALHSHYTQKSLSLSPGKGGSDSWKEEVIKLCGRELVRAQIAICGKSTASDAAGANANAGARQLYSALANKCCHVGCTKRSLAQFC
B6: SEQ ID NO: 213 (Fc fusion)
chain: B5 chain with Q293E
B7: SEQ ID NO: 204 (Fc fusion)
chain: DKTHTCPPCPAPEAAGGPSVFLFPPKPKDTLMISRTPEVTCVVVDVSHEDPEVKFNWYVDGVEVHNAKTKPREEQYNSTYRVVSVLTVLHQDWLNGKEYKCKVSNKALAAPIEKTISKAKGQPREPQVYTLPPSRDELTKNQVSLTCLVKGFYPSDIAVEWESNGQPENNYKTTPPVLDSDGSFFLYSKLTVDKSRWQQGNVFSCSVLHEALHSHYTQKSLSLSPGKGGSDSWKEEVIKLCGRELVRAQIAICGKSTGGGEGGGEGGGEGRQLYSALANKCCHVGCTKRSLARFC
B8: SEQ ID NO: 66 (Fc fusion)
chain: B7 chain with K234Q, R293Q
B9: SEQ ID NO: 206 (Fc fusion)
chain: B7 chain with K234M
B10: SEQ ID NO: 208 (Fc fusion)
chain: B7 chain with K234M, G260E, E261G, G264E, R271G
B11: SEQ ID NO: 82 (Fc fusion)
chain: B7 chain with K234Q, G260E, E261G, G262E, G267E, E269G, G270S, R293Q
B12: SEQ ID NO: 72 (Fc fusion)
chain: B7 chain with K234Q, G262E, E265G, G266E, G267E, E269G
B13: SEQ ID NO: 79 (Fc fusion)
chain: B7 chain with K234Q, L273D, R293Q
B14: SEQ ID NO: 57 (Fc fusion)
chain: B7 chain with K234Q
B15: SEQ ID NO: 74 (Fc fusion)
chain: B7 chain with K234Q, G262E, E265G, G266E, G267E, E269G, R293Q
B16: SEQ ID NO: 209 (Fc fusion)
chain: B7 chain with K234Q, G260E, E261G, G264E, R271G
B17: Relaxin-2 (R&D Biosystems 6586-RN-025) (ligand)
chain 1: DSWMEEVIKLCGRELVRAQIAICGMSTWS
chain 2: QLYSALANKCCHVGCTKRSLARFC
B18: SEQ ID NO: 210 (Fc fusion)
chain: DKTHTCPPCPAPEAAGGPSVFLFPPKPKDTLMISRTPEVTCVVVDVSHEDPEVKFNWYVDGVEVHNAKTKPREEQYNSTYRVVSVLTVLHQDWLNGKEYKCKVSNKALAAPIEKTISKAKGQPREPQVYTLPPSRDELTKNQVSLTCLVKGFYPSDIAVEWESNGQPENNYKTTPPVLDSDGSFFLYSKLTVDKSRWQQGNVFSCSVLHEALHSHYTQKSLSLSPGGGSDSWMEEVIKLCGRELVRAQIAICGKSTGGEGGGEEGGGEGGQLYSALANKCCHVGCTKRSLARFC
B19: SEQ ID NO: 211 (Fc fusion)
chain: B18 chain with M233Q
B20: SEQ ID NO: 70 (Fc fusion)
chain: B1 chain with E261G, G264E, E265G, E266G, G268E
B21: SEQ ID NO: 68 (Fc fusion)
chain: B18 chain with M233Q, E259G, G260E, E263G, G270R
B22: SEQ ID NO: 80 (Fc fusion)
chain: B18 chain with M233Q, E259G, G260E, E263G, G270R, L272D
B23: SEQ ID NO: 81 (Fc fusion)
chain: B1 chain with E261G, G264E, E265G, E266G, G268E, L272D

This experiment deals with human RXFP1, full-length (human), Q9HBX9. Description: cell-based or functional assay.
Sequence of human RXFP1, full-length (human), Q9HBX9 (Q9HBX9 whole entry): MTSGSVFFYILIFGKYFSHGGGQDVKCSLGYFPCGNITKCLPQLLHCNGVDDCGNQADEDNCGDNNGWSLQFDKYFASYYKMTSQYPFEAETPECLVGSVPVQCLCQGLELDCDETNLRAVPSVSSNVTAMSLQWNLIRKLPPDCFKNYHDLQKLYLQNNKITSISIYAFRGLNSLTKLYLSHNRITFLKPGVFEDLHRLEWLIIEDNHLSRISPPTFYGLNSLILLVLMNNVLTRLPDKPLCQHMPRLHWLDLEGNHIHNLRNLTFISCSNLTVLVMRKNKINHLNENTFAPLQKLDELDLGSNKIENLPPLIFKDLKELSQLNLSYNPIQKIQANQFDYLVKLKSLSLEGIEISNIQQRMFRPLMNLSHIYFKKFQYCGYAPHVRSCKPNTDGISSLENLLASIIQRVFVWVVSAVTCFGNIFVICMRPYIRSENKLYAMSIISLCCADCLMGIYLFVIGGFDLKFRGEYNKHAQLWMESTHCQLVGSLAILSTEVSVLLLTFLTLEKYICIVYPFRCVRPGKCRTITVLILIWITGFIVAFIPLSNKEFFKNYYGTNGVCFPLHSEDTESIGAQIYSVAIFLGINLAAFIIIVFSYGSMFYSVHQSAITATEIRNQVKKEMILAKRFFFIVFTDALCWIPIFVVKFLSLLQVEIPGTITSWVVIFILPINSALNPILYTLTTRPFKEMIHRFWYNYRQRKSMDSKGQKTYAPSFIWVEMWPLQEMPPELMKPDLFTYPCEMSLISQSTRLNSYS
Molecule B1 yielded a Potency Assay EC50 (nM), transient hRXFP1 cAMP assay of 23.4 nM.
On the same count and under the same terms, to B2 belongs 12.3 nM; to B3, 15.8 nM.
Take B4: the Potency Assay EC50 (nM), transient hRXFP1 cAMP assay was 16 nM.
The same measure, in the same setting: as for B5, the figure is 0.5 nM; as for B6, 1.8 nM; as for B7, 2.5 nM.
On the same count and under the same terms, to B8 belongs 4.2 nM; to B9, 2.9 nM.
The same measure, in the same setting: to B10 belongs 60.3 nM.
In turn, B11 yielded a Potency Assay EC50 (nM), transient hRXFP1 cAMP assay of 18.9 nM.
Same read-out and setting: to B12 belongs 5.8 nM.
The same measure, in the same setting: to B13 belongs 117 nM.
In turn, B14 had a Potency Assay EC50 (nM), transient hRXFP1 cAMP assay of 2.5 nM.
The same measure, in the same setting: to B15 belongs 10.2 nM.
Molecule B16 gave a Potency Assay EC50 (nM), transient hRXFP1 cAMP assay of 62.8 nM.
With B17, the EC50 in nM (cAMP Response in RXFP1 Transfected HEK293 Cells) was 0.042 nM; the Potency Assay EC50 (nM), transient hRXFP1 cAMP assay was found to be 0.1 nM; the pEC50 (cAMP Response in RXFP1 Transfected HEK293 Cells) amounted to 10.4.
Take B18: the Potency Assay EC50 (nM), transient hRXFP1 cAMP assay was determined as 140 nM.
Turning to B19, the Potency Assay EC50 (nM), transient hRXFP1 cAMP assay turned out to be 101 nM.
As to B20, the Potency Assay EC50 (nM), transient hRXFP1 cAMP assay came out at 8 nM.
B21 gave a Potency Assay EC50 (nM), transient hRXFP1 cAMP assay of 3.3 nM.
B22: the Potency Assay EC50 (nM), transient hRXFP1 cAMP assay came out at 162 nM.
B23 gave a Potency Assay EC50 (nM), transient hRXFP1 cAMP assay of 426 nM.
